# Data from article PMC10790780.
# Assays:
# [1] = molecular target: T1, Rho-His6 (transcription termination factor Rho) (Acinetobacter baumannii AB5075) (UniProt A0ABX6CC36); assay: competition
# [2] = tested on: Rho-His6 (transcription termination factor Rho) (Acinetobacter baumannii AB5075); assay: EMSA; settings: LightShift chemiluminescent RNA EMSA kit components, 20 uL, 1 h at room temperature; 5% acrylamide TBE gel, 0.5x TBE, 100 V 120 min at 4 C; salt and pH not …
# [3] = molecular target: T1, Rho-His6 (transcription termination factor Rho) (Acinetobacter baumannii AB5075); assay: EMSA
Substance,Kd [2] [nM],other results
"GGGCUUUGCCUGCUAGCCACAUUGCUAGCGGGUUUUAGCAGACCCUAUUUAAACAAAGACGAUAGACAGAACCUAGUUUUGUGUGUCGUGAACUCGUUCGCCCCCUUUUUCUCUAUGGUAGGGCGGAAGGGGGACACCUUCGGGUGUGCUGGUUUCUUUGUUUUCCAGUCUGCUAACCCUCUUUCGUCCUGCCAGUACUGAUC [ABUW_1645 mRNA leader, unlabeled competitor]",,binding [1]: binds
ABUW_1959 mRNA leader,29,
GGGCUUUGCCUGCUAGCCACAUUGCUAGCGGGUUUUAGCAGACCCUAUUUAAACAAAGACGAUAGACAGAACCUAGUUUUGUGUGUCGUGAACUCGUUCGCCCCCUUUUUCUCUAUGGUAGGGCGGAAGGGGGACACCUUCGGGUGUGCUGGUUUCUUUGUUUUCCAGUCUGCUAACCCUCUUUCGUCCUGCCAGUACUGAUC [ABUW_1645 mRNA leader],,Kd [3]: 20 nM
ABUW_1645 mRNA leader,20,
